Assay results: patent US4829052A, “Serine protease inhibitors” (Monsanto Company, priority 1987, dated 1989)

Key:
Format in all cases: biochemical
[1] = target: T1, Human Sputum Cathepsin G (Homo sapiens, UniProt P08311); assay: Cathepsin G assay (spectrophotometric, p-nitroanilide substrate); conditions: inhibitor/protease ratio between about 10/1 and 50/1
T1 construct: Human Sputum Cathepsin G (Product No. SG-45, EPC, Inc., Pacific, Mo.); purchased EPC, Inc., Pacific, Mo; SG-45; host or cells: human sputum
T1 sequence (P08311 21-255): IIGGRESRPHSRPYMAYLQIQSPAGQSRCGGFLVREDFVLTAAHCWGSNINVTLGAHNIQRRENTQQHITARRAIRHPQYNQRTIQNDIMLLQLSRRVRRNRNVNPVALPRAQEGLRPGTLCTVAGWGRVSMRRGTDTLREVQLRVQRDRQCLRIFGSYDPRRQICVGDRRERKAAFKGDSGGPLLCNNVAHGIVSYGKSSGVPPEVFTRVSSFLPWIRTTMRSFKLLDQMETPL
Procedure: (§1) The inhibitory activity of the polypeptides of the present invention can be easily assayed using in vitro assays. In these types of spectrophotometric assays the activity of the serine protease is measured toward an appropriate p-nitroanilide substrate in the presence and absence of the peptide inhibitor. The enzyme catalyzed hydrolysis of the peptide p-nitroanilide substrate produces p-nitroanaline which results in an increase in absorbance which is monitored in the range of 405 to 410 nm. The rate of increase in absorbance is a measure of the enzymatic activity and the decrease in this rate relative to a suitable control is used to ascertain inhibition. The general assay procedure and details of the particular assays employed in the examples are provided in the Appendix following the examples. It is also possible to test the polypeptides in a functionally oriented assay that emulates in vivo conditions. Such an inhibition assay for elastase is also described in the Appendix.
(§2) Generalized Protocol Spectrophotometric Assays:
(§3) (1) Pipette 100 μl of enzyme solution into a disposable polystyrene cuvette (1 cm optical path length).
(§4) (2) Add (1900-X) μl of bufferto the cuvette, where X is the volume of test solution in microliters that is added in the next step.
(§5) Add X μl of test solution to the cuvette, where X ranges from 0 μl for the control to a maximum of about 500 μl. Incubate the solution for a period of 1 to 5 minutes at ambient temperature.
(§6) (4) Add 100 μl of substrate solution to the cuvette. Mix the contents by covering the cuvette with a piece of paraffin film and repeatedly inverting for a period of 5 to 15 seconds.
(§7) (5) Record the change in absorbance for about 5 minutes at either 405 or 410 nm, depending on the assay, with a spectrophotometer equipped with a suitable recording device.
(§8) The percent inhibition is calculated from the formula [formula] where (ΔA/min) is the initial rate of absorbance change.
(§9) (7) For more accurate quantitative determinations temperature control of the cuvette holders and the reagent solutions can be instituted.
(§10) (8) The test solution can be crude oxidized peptide prepared as described above, fractions from a chromatographic separation or purified polypeptides.
(A) Buffer Solution - Tris-NaCl buffer consisting of 0.1M Tris-HCl, pH 8.0 containing 0.5M NaCl and 0.03% sodium azide.
(B) Substrate solution - Dissolve 50 mg of N-succinyl-L-alanyl-L-alanyl-L-prolyl-L-phenylalanine p-nitroanilide in 1 ml of 1-methyl-2-pyrrolidinone and dilute to 50 ml with Tris-NaCl buffer.
(C) Enzyme Solution - Human Sputum Cathepsin G (Product No. SG-45, EPC, Inc., Pacific, Mo.). Dissolve 1 mg of protein per 1 ml of Tris-NaCl buffer. Store on ice or at 4° C.
(D) Test Solutions - See the general protocol, number 8.
Procedure: Use the above solution in the general protocol described above. […]

[2] = target: T2, purified HE (Homo sapiens, UniProt P08246); assay: 3H-Elastin assay with purified HE; conditions: FIG. 4
T2 sequence (P08246 30-267): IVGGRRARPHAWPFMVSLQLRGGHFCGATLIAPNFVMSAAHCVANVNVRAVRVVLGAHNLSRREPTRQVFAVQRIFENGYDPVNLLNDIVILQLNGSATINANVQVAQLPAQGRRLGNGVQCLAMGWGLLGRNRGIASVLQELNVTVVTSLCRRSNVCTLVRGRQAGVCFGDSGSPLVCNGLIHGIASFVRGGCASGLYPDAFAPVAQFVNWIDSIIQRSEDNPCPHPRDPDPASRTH
Procedure: The inhibition of elastolysis by peptide 8 was investigated using the ^3 H-elastin assay and purified HE.
Another, yet less sensitive, assay employs radiolabelled elastin as the solid substrate in order to imitate degradation of connective tissue.
Radiolabeling of bovine neck ligament elastin is carried out with tritiated sodium borohydride as described by Stone, et al. (Anal. Biochem., 1977, 80:572-577). Elastin coated microtiter plates are prepared essentially as described above for the fibronectin plates. The assay is run similarly except that the supernatant is added to a scintillation cocktail for counting. The linearity of the responses to purified HE is also tested.

[3] = target: T3, purified human elastase (HE) (Homo sapiens, UniProt P08246); assay: 125I-Fibronectin assay with purified human elastase; conditions: enzyme concentration 4 nM, FIG. 3
T3 sequence (P08246 30-267): T2 sequence (P08246 30-267)
Procedure: This assay is designed to model the degradation of connective tissue. […] Briefly, purified human plasma fibronectin (fn) is radiolabeled with ^125 I using Enzymobeads and conventional procedures. The desalted is diluted with fn to yield ca. cpm/ug. This material is further diluted with pH 9.6 barbital buffer and 200 ul (30 ug fn, 50000 cpm) is pipetted into the wells of a flat bottomed 96 well microtiter plate. The plates are dried for about 24 hours at 37° C. and unbound fn is removed with 2 washes of phosphate buffered saline (PBS). The plates are stored at 4° C. and are stable for at least 2 weeks.
For an assay each coated well is filled with a total volume of 200 μl. All measurements are carried out at optimal pH and buffer conditions. After addition of proteolytic activity with or without inhibitor the plate is incubated at 37° C. for 3 hours. The well contents are centrifuged and a 100 μl aliquot is counted for 1251gamma radiation. Some assays employed elastase activity derived from freshly prepared neutrophils (PMN). ln this case an activating agent to stimulate the PMN is present in the well and the PMN is added last. A standard curve showing the linearity of the response to the amount of purified human elastase (HE) added is obtained concurrently with each assay.

[4] = target: T4, Human Sputum Elastase (Homo sapiens, UniProt P08246); assay: Elastase assay (spectrophotometric, p-nitroanilide substrate)
T4 construct: Human Sputum Elastase, product No. SE-563 EPC, Inc., Pacific, Mo; USA, Lot 85701; purchased EPC, Inc., Pacific, Mo; USA SE-563; host or cells: human sputum
T4 sequence (P08246 30-267): T2 sequence (P08246 30-267)
Procedure: as §1, §2, §3, §4, §5, §6, §7, §8, §9, §10
(A) Buffer Solution - Tris-NaCl buffer consisting of 0.1M Tris-HCl pH 7.5 at 25° C. containing 0.5M NaCl and 0.01% (w/v) NaNs.
(B) Substrate Solution - Dissolve 45.5 mg of N-succinyl-L-alanyl-L-alanyl-L-alanine p-nitroanilide in 1 ml of 1-methyl-2-pyrrolidinone. Add 32 ml of Tris-NaCl buffer.
(C) Enzyme Solution - Human Sputum Elastase, product No. SE-563 EPC, Inc., Pacific, Mo. USA, Lot 85701. Dissolve 1 mg in 1 ml of Tris-NaCl buffer. Store on ice or at 4° C.
(D) Test Solution - See general protocol, number 8.
Procedure: Use the above solutions in the general protocol described above.
(1) Buffer Solution - Tris-NaCl buffer -see Method 1.
(2) Substrate Solution - Dissolve 50 mg of 3-carbomethoxypropionyl-L-alanyl-L-alanyl-L-[…]-L-valine p-nitroanilidein 1 ml of 1-methyl-2-pyrrolidinone. Add 32 ml of Tris-NaCl buffer.
(3) Enzyme Solution - Human sputum elastase, product No. SE-563, EPC, inc. Pacific, Mo. USA, Lot 85071. Prepare a sample at a concentration of 0.01 mg per ml of Tris-NaCl buffer. Store on ice.
(4) Test Solution - general protocol, number 8.
Procedure: Use the above solutions in the general protocol.
(1) Porcine pancreatic elastase may be substituted for human elastase when it is desired to test for an inhibitor of the former.
(2) The activity of an elastase preparation can be calculated as [formula]
(3) The Tris-NaCl buffer also can be pH 8.0 with 0.03% sodium azide. Results should be compared at a single pH.

RVCPVILMKCKKDSDCLAECVCLEHGYCG (RVCPVILMKCKKDSDCLAECVCLEHGYCG) [Peptide 8]
Inhibitory Activity Cathepsin G [1]: - (Represents less than 10% inhibition) | inhibition of elastolysis [2]: equally effecive for these two connective tissue substrates | inhibition of 125I fibronectin degradation [3]: nearly the same inhibitory profile against purified human elastase (HE) and PMN-derived HE activity | titration curve for elastase inhibition ([4]; FIG. 2): essentially stochiometric inhibition | Inhibitory Activity Elastase ([4]; inhibitor/protease ratio between about 10/1 and 50/1): ++ (Represents greater than 50% inhibition)
